Measured values from patent publication US20230192896A1 (BIOVERATIV THERAPEUTICS, published 2023).
Substitutions are numbered along the chain they refer to.

B1: BIIB-9-581 (antibody, V domains shown)
VH: QVQLVQSGAEVKKPGASVKVSCKASGYTFTSYYMHWVRQAPGQGLEWMGIINPSGGSTSYAQKFQGRVTMTRDTSTSTVYMELSSLRSEDTAVYYCARDPLYYREGYVFDYWGQGTLVTVSS
VL: DIQMTQSPSSLSASVGDRVTITCRASQSISSYLNWYQQKPGKAPKLLIYAASSLQSGVPSRFSGSGSGTDFTLTISSLQPEDFATYYCQQSDLFPFTFGGGTKVEIK
notes: IgG
B2: BIIB-9-585 (antibody, V domains shown)
VH: QLQLQESGPGLVKPSETLSLTCTVSGGSISSSDYYWGWIRQPPGKGLEWIGSIYYSGSTYYNPSLKSRVTISVDTSKNQFSLKLSSVTAADTAVYYCAREVGTYYYGLDFWFDPWGQGTLVTVSS
VL: B1 VL with L11V, S28G, Y32W, N34A, S91A, D92N, L93S, F94Y, F96I
notes: IgG
B3: BIIB-9-606 (antibody, V domains shown)
VH: QVQLVQSGAEVKKPGASVKVSCKASGYTFTSYYMHWVRQAPGQGLEWMGIINPSGGSTSYAQKFQGRVTMTRDTSTSTVYMELSSLRSEDTAVYYCARTKWSSSPYGMDVWGQGTTVTVSS
VL: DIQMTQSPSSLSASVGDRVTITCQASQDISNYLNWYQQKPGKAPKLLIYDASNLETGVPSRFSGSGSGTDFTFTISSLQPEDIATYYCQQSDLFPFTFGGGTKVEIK
notes: IgG
B4: BIIB-9-582 (antibody, V domains shown)
VH: B3 VH with H35V, T99A, K100P, W101T, S102Y, S103F, S104Y, P105S
VL: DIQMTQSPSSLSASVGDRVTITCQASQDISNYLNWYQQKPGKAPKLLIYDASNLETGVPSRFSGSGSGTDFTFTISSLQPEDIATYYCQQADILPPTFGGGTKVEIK
notes: IgG
B5: BIIB-9-569 (antibody, V domains shown)
VH: B3 VH with T99D, K100G, W101S, S102G, S103Y, G107S, M108F, V110P, T116L
VL: DIQMTQSPSSLSASVGDRVTITCQASQDISNYLNWYQQKPGKAPKLLIYDASNLATGVPSRFSGSGSGTDFTFTISSLQPEDIATYYCQQADDFPFTFGGGTKVEIK
notes: IgG
B6: BIIB-12-1324 (antibody, V domains shown)
VH: QVQLVQSGAEVKKPGASVKVSCKASGYTFTSYYMVWVRQAPGQGLEWMGIINPSGGSTSYAQKFQGRVTMTRDTSTSTVYMELSSLRSEDTAVYYCARLPRYSKRGLDVWGQGTMVTVSS
VL: EIVMTQSPATLSLSPGERATLSCRASQSVSSYLAWYQQKPGQAPRLLIYDSSNRATGIPARFSGSGSGTDFTLTISSLEPEDFAVYYCQQLVSWPTFGGGTKVEIK
notes: IgG
B7: BIIB-12-1312 (antibody, V domains shown)
VH: QVQLVESGGGVVQPGRSLRLSCAASGFTFSSYGMHWVRQAPGKGLEWVAVISYDGSNKYYADSVKGRFTISRDNSKNTLYLQMNSLRAEDTAVYYCAKGMGHWIDYWGQGTLVTVSS
VL: B1 VL with L11V, S28G, Y32W, N34A, S91A, D92S, L93S, F96P
notes: IgG
B8: BIIB-12-1323 (antibody, V domains shown)
VH: QVQLVQSGAEVKKPGASVKVSCKASGYTFTSYYIHWVRQAPGQGLEWMGIINPSGGSTSYAQKFQGRVTMTRDTSTSTVYMELSSLRSEDTAVYYCARGRRFPRGLDYWGQGTLVTVSS
VL: B1 VL with L11V, S28G, Y32W, N34A, S91A, D92N, L93I
notes: IgG
B9: BIIB-12-1332 (antibody, V domains shown)
VH: B8 VH with I34M, H35S, G99L, R100G, F102K, P103S, G105V, L106F, Y108I, L114M
VL: B1 VL with L11V, S28G, Y32W, N34A, S91V, D92N, L93S, F96L, I106F
notes: IgG
B10: BIIB-12-1307 (antibody, V domains shown)
VH: QVQLQESGPGLVKPSETLSLTCAVSGYSISSGYYWAWIRQPPGKGLEWIGSIYHSGSTYYNPSLKSRVTISVDTSKNQFSLKLSSVTAADTAVYYCARGPLPRSRGLAFDIWGQGTMVTVSS
VL: B1 VL with M4L, Y32F, S91T, D92Y, L93S, F94T, F96L
notes: IgG
B11: BIIB-12-1317 (antibody, V domains shown)
VH: B7 VH with K98R, M100V, H102G, W103H, I104D, D105T, Y106R
VL: B1 VL with L11V, S28G, Y32W, N34A, S91R, D92H, L93S, F94L, F96P
notes: IgG
B12: BIIB-12-1310 (antibody, V domains shown)
VH: EVQLVESGGGLVKPGGSLRLSCAASGFTFSSYSMNWVRQAPGKGLEWVSSISSSSSYIYYADSVKGRFTISRDNAKNSLYLQMNSLRAEDTAVYYCARLGGYGSSQRYFDLWGRGTLVTVSS
VL: EIVLTQSPATLSLSPGERATLSCRASQSVSRYLAWYQQKPGQAPRLLIYDASNRATGIPARFSGSGSGTDFTLTISSLEPEDFAVYYCEQASNWPPTFGGGTKVEIK
notes: IgG
B13: BIIB-12-1318 (antibody, V domains shown)
VH: QVQLVESGGGVVQPGRSLRLSCAASGFTFSSYGMHWVRQAPGKGLEWVAVISYDGSNKYYADSVKGRFTISRDNSKNTLYLQMNSLRAEDTAVYYCARKGDYRSGSYSGRAFGIWGQGTMVTVSS
VL: B12 VL with R31S, E89Q, A91L, S92N
notes: IgG
B14: BIIB-12-1313 (antibody, V domains shown)
VH: QVQLVESGGGVVQPGRSLRLSCAASGFTFSSYGMHWVRQAPGKGLEWVAVISYDGSNKYYADSVKGRFTISRDNSKNTLYLQMNSLRAEDTAVYYCAKGTGWWRYWGQGTLVTVSS
VL: EIVMTQSPATLSVSPGERATLSCRASQSVSSNLAWYQQKPGQAPRLLIYGASTRATGIPARFSGSGSGTEFTLTISSLQSEDFAVYYCQQHNHLPITFGGGTKVEIK
notes: IgG
B15: BIIB-12-1329 (antibody, V domains shown)
VH: QVQLVESGGGVVQPGRSLRLSCAASGFTFSSYGMHWVRQAPGKGLEWVAVISYDGSNKYYADSVKGRFTISRDNSKNTLYLQMNSLRAEDTAVYYCARGGAGSRYFQHWGQGTLVTVSS
VL: B14 VL with L11K, G50S, H91V, N92F, H93N, L94W, I96P, E105K
notes: IgG
B16: BIIB-12-1327 (antibody, V domains shown)
VH: QVQLVESGGGVVQPGRSLRLSCAASGFTFSSYGMHWVRQAPGKGLEWVAVISYDGSNKYYADSVKGRFTISRDNSKNTLYLQMNSLRAEDTAVYYCAKLGLARGGGYGMDVWGQGTTVTVSS
VL: B14 VL with L11Q, S12Y, H91Y, N92H, H93N, L94F, I96P
notes: IgG
B17: BIIB-12-1328 (antibody, V domains shown)
VH: QLQLQESGPGLVKPSETLSLTCTVSGGSISSSSYYWGWIRQPPGKGLEWIGSIYYSGSTYYNPSLKSRVTISVDTSKNQFSLKLSSVTAADTAVYYCARDPAYYSGHDYYYYGMDVWGQGTTVTVSS
VL: B14 VL with H91P, H93S, L94Y, I96L
notes: IgG
B18: BIIB-12-1325 (antibody, V domains shown)
VH: QVQLVQSGAEVKKPGASVKVSCKASGYTFTSYYMVWVRQAPGQGLEWMGIINPSGGSTSYAQKFQGRVTMTRDTSTSTVYMELSSLRSEDTAVYYCARGGRYMLDPWGQGTLVTVSS
VL: DIQMTQSPSTLSASVGDRVTITCRASQSISSWLAWYQQKPGKAPKLLIYKASSLESGVPSRFSGSGSGTEFTLTISSLQPDDFATYYCQQSNRYPRTFGGGTKVEIK
notes: IgG
B19: BIIB-12-1326 (antibody, V domains shown)
VH: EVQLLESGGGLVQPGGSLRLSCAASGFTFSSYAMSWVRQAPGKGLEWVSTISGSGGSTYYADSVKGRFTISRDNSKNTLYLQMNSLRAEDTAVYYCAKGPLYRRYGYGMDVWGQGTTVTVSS
VL: EIVLTQSPGTLSLSPGERATLSCRASQSVRSSYLAWYQQKPGQAPRLLIYGASSRATGIPDRFSGSGSGTDFTLTISRLEPEDFAVYYCQQAYSSPLTFGGGTKVEIK
notes: IgG
B20: BIIB-12-1319 (antibody, V domains shown)
VH: QVQLVESGGGVVQPGRSLRLSCAASGFTFSSYGMHWVRQAPGKGLEWVAVISYDGSNKYYADSVKGRFTISRDNSKNTLYLQMNSLRAEDTAVYYCARTGYHRSVYYWGQGTLVTVSS
VL: EIVMTQSPATLSVSPGERATLSCRASQSVSSNLAWYQQKPGQAPRLLIYGASTRATGIPARFSGSGSGTEFTLTISSLQSEDFAVYYCQQASNFPPTFGGGTKVEI
notes: IgG
B21: BIIB-12-1330 (antibody, V domains shown)
VH: B20 VH with R98K, T99G, Y101S, H102A, S104W, V105I, Y106N, Y107I, L113T
VL: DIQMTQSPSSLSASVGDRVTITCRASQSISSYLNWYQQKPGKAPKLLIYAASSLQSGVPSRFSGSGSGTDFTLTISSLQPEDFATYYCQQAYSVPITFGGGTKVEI
notes: IgG
B22: BIIB-12-1322 (antibody, V domains shown)
VH: QVQLVQSGAEVKKPGASVKVSCKASGYTFTSYYIHWVRQAPGQGLEWMGIINPSGGSTSYAQKFQGRVTMTRDTSTSTVYMELSSLRSEDTAVYYCARSRQRHRGDWYFDLWGRGTLVTVSS
VL: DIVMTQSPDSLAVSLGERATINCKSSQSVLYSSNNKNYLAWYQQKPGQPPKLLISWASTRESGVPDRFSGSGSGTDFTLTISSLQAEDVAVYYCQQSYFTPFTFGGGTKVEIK
notes: IgG
B23: BIIB-12-1333 (antibody, V domains shown)
VH: QVQLVQSGAEVKKPGASVKVSCKASGYTFTSYYMVWVRQAPGQGLEWMGIINPSGGSTSYAQKFQGRVTMTRDTSTSTVYMELSSLRSEDTAVYYCARVSRRDYPLAFDIWGQGTMVTVSS
VL: EIVMTQSPATLSVSPGERATLSCRASQSVSSNLAWYQQKPGQAPRLLIYGASTRATGIPARFSGSGSGTEFTLTISSLQSEDFAVYYCQQVNTWPTFGGGTKVEIK
notes: IgG
B24: BIIB-12-1315 (antibody, V domains shown)
VH: QVQLVQSGAEVKKPGASVKVSCKASGYTFTSYYMVWVRQAPGQGLEWMGIINPSGGSTSYAQKFQGRVTMTRDTSTSTVYMELSSLRSEDTAVYYCARGRPSSKRVTYFDYWGQGTLVTVSS
VL: EIVMTQSPATLSVSPGERATLSCRASQSVSSNLAWYQQKPGQAPRLLIYGASTRATGIPARFSGSGSGTEFTLTISSLQSEDFAVYYCQQVFNWPPWTFGGGTKVEIK
notes: IgG

The binders below were run against T1, FIXa-SM (FIXa+EGR-CMK) (human, UniProt P00740 47-191; P00740 227-461, EGR-CMK (L-Glu-Gly-Arg chloromethyl ketone) covalently bound to the active site) (assay: BLI; class meaning: paragraph 914).
T1 construct: BLI antigen bought from Haematologic Technologies (HCIXA-EGR); also called FIXa with substrate mimic

binding result	Binder
binds	B1
binds	B2
binds	B3
binds	B4
binds	B5

The binders below were run against T2, non-activatable Factor X (FXn) (Homo sapiens (Human), UniProt P00742 41-488, single biotin on the C-terminal BioTag) (assay: BLI; class meaning: paragraph 285).
T2 construct: also called BIIB-FX-015

binding result	Binder
binds	B6
binds	B7
binds	B8
binds	B9
binds	B10
binds	B11
binds	B12
binds	B13
binds	B14
binds	B15
binds	B16
binds	B17
binds	B18
binds	B19
binds	B20
binds	B21
binds	B22
binds	B23
binds	B24
